Assay results from the supplement of paper PMC10567573.

B1: HESX1 (parent)
chain: HVPNPPSGISFPSVVDHPMPEERA

Variants of: B1
Assay: protein stability index of a GFP-peptide fusion (GPS, HEK-293T) (PSI 1-6); higher = more stable
Settings: c terminus: a fixed tail appended
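Also: lentivirally expressed fusions sorted by FACS into six bins by GFP to DsRed ratio, PSI derived from sequencing read proportions per bin multiplied by bin number.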

Protein stability index: each site, then its substitutions
P12: W 3.85; Y 2.56; C 2.72; H 3.38
H17: Y 2.52; N 2.8; E 3.29; W 2.19; D 3.28; S 3.01; F 2.15; A 3.2; G 2.82; C 2.39; T 2.94
S7: L 3.61; A 3.88; Q 2.84; F 2.15; Y 2.04; H 2.54; P 2.7; V 3.3; D 2.8; E 3.57; G 2.4; I 3.4
H1: Q 5.07; C 4.48; M 5.08; A 5.22; Y 2.25; S 5.2; K 4.82; E 5.06; N 5.29; P 5.28; I 4.77; T 5.62
S13: Y 1.94; M 2.08; A 2.55; L 2.09; N 3.04; T 2.45; R 2.59; G 2.81; P 2.73; C 2.45; D 3.94; Q 2.71
P18: F 2.42; Q 2.61; Y 2.48; V 2.64; H 2.49; C 2.25; K 2.7; A 2.61; S 2.61; G 2.43; E 2.85
E21: W 2; T 2.52; D 2.85; P 2.06; I 1.95; Y 2.43; F 1.96; K 1.89; R 2.52; A 2.49; N 2.37
V15: I 3.16; S 2.99; K 3.2; R 3.11; P 3.06; M 3.49; C 2.04; Y 3.03; G 3.85; W 2.17
